Reference: US20200115433A1

Molecular target: …-HLA-A2 complex (human)
Experiment: SPR BIAcore T200, single-cycle kinetics, pMHC on chip

Kd: 0.425 nM
B1: single chain TCR s-10 (TCR)
chain: SQQGEEDPQALSIQEGENVTINCSYKGWAQNRQNSGRGLVHLILIRSNEREKHSGRLRVTLDTSKKSSSLEITAVRPADTASYFCATDANARWDFGKGTRLHILPGGGSEGGGSEGGGSEGGGSEGGTGDAGVTQSPRHESVEMGQEVTLRCKPISGHDYLFWYRQTPKRGLELLIYFNHGAVIDDSGMPEDRFSAKMPNASFSTLKIQPVEPRDSAVYFCASQLGSNEQYFGPGTRLTVT
